In PMC11948038, “Evolutionary Pro‐To‐Thr Mutation in the Intrinsically Disordered Domain of ANP32 Family Members Modulates Their Target Binding Modes” (Advanced Science, 2025):

B3: cytochrome c (natural protein)
chain: not shown
notes: cytochrome c (Cc), a hemeprotein; Carries a heme group; the reduced form was used in ITC and NMR relaxation; 15N-labelled for the NMR titrations; Expression and purification are in the Supporting Information Appendix; also called Cc; hemeprotein Cc; source: details in the Supporting Information

Tests used:
Conditions in all cases: both partners purified
HuR_(106-326) [1] = target: T1, HuR_(106-326) (UniProt Q15717 106-326); assay: ITC; 1 mM peptide titrated onto 100 µM HuR106-326 in the cell; 17 injections of 2.91 µL; 10 mM sodium phosphate buffer pH 6.3 (low ionic strength); stirring 200 rpm; Nano ITC Low Volume
T1 construct: amplified from a pGEX-4T-2 plasmid carrying full-length HuR; No cleavage of the tags is told; also called human antigen R construct with RRM2, hinge region and RRM3; source: E. coli BL21 (DE3), purified (Ni-NTA, dialysis)
T1 sequence (Q15717 106-326): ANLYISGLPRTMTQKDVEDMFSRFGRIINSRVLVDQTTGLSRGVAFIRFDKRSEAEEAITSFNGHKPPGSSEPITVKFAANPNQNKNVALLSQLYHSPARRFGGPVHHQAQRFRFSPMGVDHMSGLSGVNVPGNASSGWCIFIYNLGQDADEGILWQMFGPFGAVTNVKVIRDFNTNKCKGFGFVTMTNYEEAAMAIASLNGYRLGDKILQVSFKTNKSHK

HuR_(106-326) [2] = target: T2, HuR_(106-326) (UniProt Q15717 106-326); assay: ITC; 1 mM peptide titrated onto 100 µM HuR_(106-326); 10 mM sodium phosphate pH 6.3, low ionic strength
T2 construct: also called HuR construct containing the RRM domains 2 and 3, separated by the hinge region; source: details in the Supporting Information
T2 sequence (Q15717 106-326): as above

cytochrome c = target: B3; assay: ITC; 1 mM peptide titrated onto 110 or 150 µM reduced Cc; 10 mM sodium phosphate pH 6.3; single binding-site model
Chain of cytochrome c (P99999 2-105): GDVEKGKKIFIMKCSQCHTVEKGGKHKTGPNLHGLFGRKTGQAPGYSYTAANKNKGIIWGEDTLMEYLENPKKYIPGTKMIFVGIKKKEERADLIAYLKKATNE

full-length ANP32A [3] = target: T3, full-length ANP32A (human, UniProt P39687 1-249); assay: ITC; moderate ionic strength (100 mM): 20 mM sodium phosphate pH 7.4 with 50 mM NaCl; 400 µM reduced Cc injected into 50 µM ANP32A; single site
T3 construct: Used in ITC and NMR titrations; construct details are in the Supporting Information Appendix; also called acidic leucine-rich nuclear phosphoprotein 32 A; source: details in the Supporting Information

biotinylated ANP32A = target: T4, biotinylated ANP32A (human, UniProt P39687 1-249, biotin (site not stated)); assay: BLI; biotinylated ANP32 proteins on a streptavidin-coated sensor, increasing concentrations of Cc; wavelength shifts at equilibrium plotted against Cc concentration
T4 construct: ANP32A, human, biotinylated and attached to a streptavidin-coated sensor

biotinylated ANP32B = target: T5, biotinylated ANP32B (human, UniProt Q92688 1-251, biotin (site not stated)); assay: as above
T5 construct: ANP32B, human, biotinylated and attached to a streptavidin-coated sensor

full-length ANP32A [4] = target: T3, full-length ANP32A; assay: ITC; low ionic strength (25 mM): 10 mM sodium phosphate pH 7.4; 400 µM reduced Cc injected into 50 µM ANP32A construct; two-ligand binding sites model, no cooperativity
full-length ANP32A [5] = target: T3, full-length ANP32A; assay: as above; remark: listed apart in the source

B1: ANP32B_(232-251) peptide (peptide)
peptide: EEGGKGEKRKRETDDEGEDD
notes: also called ANP32B peptide; source: synthetic peptide (Genecust, France)
For B1, the Kd (HuR_(106-326) [1]) was 550 µM and the “stoichiometry N” value (HuR_(106-326) [1]) was 1.9 ± 0.03.

B2: ANP32B_(232-251) peptide (peptide)
peptide: EEGGKGEKRKRETDDEGEDD
notes: as for B1
For B2, the “stoichiometry N” value (HuR_(106-326) [2]) was 2, the Kd (cytochrome c) was 710 µM and the dH (cytochrome c) was -8 kcal/mol. For the same binder, the “stoichiometry N” value (cytochrome c) was 1.2 ± 0.03.

With B3 the Kd (full-length ANP32A [3]) was 32 µM, the dH (full-length ANP32A [3]) was 1.5 kcal/mol and the “stoichiometry N” value (full-length ANP32A [3]) was 0.6 ± 0.03. For the same binder, the Kd (biotinylated ANP32A) was roughly 2.3 µM, the Kd (biotinylated ANP32B) was roughly 4.2 µM and the “stoichiometry N” value (full-length ANP32A [4]) was 2. The “KD of site 1” value (full-length ANP32A [5]) was 3.6 µM, the “KD of site 2” value (full-length ANP32A [5]) was 34 µM and the “dH of site 1” value (full-length ANP32A [5]) was 0.4 kcal/mol. For the same binder, the “dH of site 2” value (full-length ANP32A [5]) was 8.6 kcal/mol.

B4: ANP32A_(230-249) peptide (peptide)
peptide: EEERGQKRKREPEDEGEDDD
notes: also called ANP32A peptide; source: synthetic peptide (Genecust, France)
For B4, the Kd (HuR_(106-326) [1]) was 120 µM and the “stoichiometry N” value (HuR_(106-326) [1]) was 1.8 ± 0.03.

B5: ANP32A_(230-249) P241T peptide (peptide)
peptide: EEERGQKRKRETEDEGEDDD
notes: also called single mutant; source: synthetic peptide (Genecust, France)
B5 was tested, and the Kd (cytochrome c) was 190 µM, the dH (cytochrome c) was -6.9 kcal/mol and the “stoichiometry N” value (cytochrome c) was 0.77 ± 0.03.

B6: ANP32A_(230-249) peptide (peptide)
peptide: EEERGQKRKREPEDEGEDDD
notes: also called ANP32A peptide; NLS-containing peptide; source: synthetic peptide (Genecust, France)
For B6, the “fold affinity against ANP32B_(232-251)” value (HuR_(106-326) [2]) was roughly 5 fold, the “stoichiometry N” value (HuR_(106-326) [2]) was 2 and the Kd (cytochrome c) was 69 µM. For the same binder, the dH (cytochrome c) was -2.6 kcal/mol and the “stoichiometry N” value (cytochrome c) was 0.76 ± 0.03.

B7: ANP32A_(230-249) Q235E/P241T peptide (peptide)
peptide: EEERGEKRKRETEDEGEDDD
notes: also called double mutant; source: synthetic peptide (Genecust, France)
With B7 the Kd (cytochrome c) was 190 µM, the dH (cytochrome c) was -8.2 kcal/mol and the “stoichiometry N” value (cytochrome c) was 0.77 ± 0.03.
